In patent publication US20250179192A1 (PHARMABCINE, published 2025):

Key:
hDLL4 = target: T1, hDLL4 (human, UniProt Q9NR61 27-524, limits assumed); assay: SPR Biacore T200, fusion protein captured on Protein A chip, antigen as analyte, 1:1 model
T1 construct: Analyte in SPR; also called human delta-like ligand 4 (soluble antigen protein)
Method: (§1) The binding ability of the selected fusion protein to the antigen was measured using SPR (Biacore T200, Cytiva). The fusion protein was captured and analyzed using the antigen protein as an analyte. Using a Protein A chip, the fusion protein was immobilized on the surface according to the manufacturer's instructions. The fusion protein on the sensor chip was diluted with PBS-T running buffer to a concentration of 5 μg/ml and injected at a flow rate of 10 μl/min to reach about 200 RU. The antigen was diluted with PBS-T running buffer by concentration and injected at a flow rate of 30 μl/min for 4 minutes, and the dissociation time was set to 10 minutes. To remove the fusion protein bound every cycle, a regeneration solution (10 mM glycine-HCl, pH 1.5) was injected at a flow rate of 30 μl/min for 1 minute. The experimental results were calculated using the 1:1 binding model of BIA evaluation software version 1.0.

hKDR-ECD = target: T2, hKDR-ECD (human, UniProt P35968 20-764); assay: as above
T2 construct: extracellular domain; Analyte in SPR; also called human KDR (VEGFR-2) extracellular domain
Method: as §1

[1] = target: T3, hDLL4 expressed on HEK293 cells (human, UniProt Q9NR61 27-685); assay: FACS on hDLL4-overexpressing HEK293 cells (293-DLL4), 5 nM, anti-human IgG-PE secondary; secondary only 82.0
T3 construct: whole, on cells; also called DLL4-overexpressed HEK293 cells
Method: Specifically, the pcDNA-hDLL4 vector synthesized by GeneArt was transfected into HEK293 cells using Lipofectamin™ 2000 (Invitrogen #1168-019, USA), and neomycin (Gibco #10131, 50 mg/ml) was added for selection. Then, all grown cells were collected and cultured in a pool state. Then, 23 types of single colonies were obtained by culture using a limiting dilution method, and among the single colonies, one type of cell line that highly overexpressed hDLL4 was selected and tested. The selected cells were prepared to a concentration of 2×10⁷ cells/ml in FACS buffer (0.5% FBS, 0.05% sodium azide in PBS) and dispensed at 50 μl into each of FACS tubes. 5 nM fusion protein and control antibodies (6A6, 6A6×DLL4, D4, D4×DLL4, Minod-Fc) were added in 100 μl to each of the FACS tubes containing the cells, followed by reaction at 4° C. for 30 minutes. After completion of reaction, 2 ml of FACS buffer was added to each tube, followed by centrifugation at 1500 rpm for 3 minutes. The supernatant was removed, the cells were well resuspended, and then 100 μl of anti-human IgG-PE antibody (1:200, […], #A80-248PE) was added, followed by reaction at 4° C. for 20 minutes. After completion of reaction, 2 ml of FACS buffer was added to each FACS tube, followed by centrifugation at 1500 rpm for 3 minutes. The separated supernatant was removed, the cells were resuspended in 200 μl of FACS buffer, and the binding activity was analyzed using FACS (Beckton Dickinson, Lyric).

VEGFR2 (KDR) on HUVECs = target: T4, VEGFR2 (KDR) on HUVECs (human, UniProt P35968 20-1356); assay: FACS on HUVECs, 5 nM, anti-human IgG-PE secondary; secondary only 65.7
T4 construct: Endogenous receptor on HUVECs; also called KDR (VEGFR-2)
Method: To determine the binding activity of the fusion protein to HUVECs, FACS analysis was performed using the fusion protein and control antibodies (6A6, 6A6×DLL4, D4, Minod-Fc).
Specifically, HUVECs (LONZA, Cat No. C2519A) were cultured at 37° C. and 5% CO₂ using a plate coated with 2% gelatin and VascuLife medium complete kit (Lifeline Cell Technology, Cat No. #LCT-LL-0005). The cells were prepared at a concentration of 2×10⁷ cells/ml in FACS buffer (0.5% FBS, 0.05% sodium azide in PBS) and dispensed at 50 μl into each of FACS tubes. 100 μl of each antibody at a concentration of 5 nM was mixed in the FACS tube, followed by reaction at 4° C. for 30 minutes. After completion of reaction, 2 ml of FACS buffer was added to each tube, followed by centrifugation at 1500 rpm for 3 minutes. The supernatant was removed, the cells were resuspended, and 100 μl of anti-human IgG-PE antibody (1:200, Bethyl, #A80-248PE) was added, followed by reaction at 4° C. for 20 minutes. 2 ml of FACS buffer was added to each FACS tube, followed by centrifugation at 1500 rpm for 3 minutes. The separated supernatant was removed, the cells were resuspended in 200 μl of FACS buffer, and the binding activity was analyzed using FACS (Beckton Dickinson, Lyric).

KDR1-3 domains = target: T5, KDR1-3 domains (UniProt P35968 20-327, limits assumed); assay: Octet BLI, KDR1-3 domains on biosensor, scFv in solution
T5 construct: domain: KDR1-3 domains; Immobilized on the Octet biosensor; also called KDR D1-D3; KDR1-3 domain-Fc (as used for panning)
Method: The binding ability of the selected antibodies to the antigen was measured using Octet (Fortebio). To this end, KDR1-3 domains were immobilized on a biosensor, candidate antibodies expressed in scFv form were added and bound, and the dissociation rate constant was measured. The results of measurement of dissociation rate constant for the five selected optimized clones [Table 1] and amino acid sequences [Tables 2 and 3] are shown below.

T3 sequence (Q9NR61 27-685): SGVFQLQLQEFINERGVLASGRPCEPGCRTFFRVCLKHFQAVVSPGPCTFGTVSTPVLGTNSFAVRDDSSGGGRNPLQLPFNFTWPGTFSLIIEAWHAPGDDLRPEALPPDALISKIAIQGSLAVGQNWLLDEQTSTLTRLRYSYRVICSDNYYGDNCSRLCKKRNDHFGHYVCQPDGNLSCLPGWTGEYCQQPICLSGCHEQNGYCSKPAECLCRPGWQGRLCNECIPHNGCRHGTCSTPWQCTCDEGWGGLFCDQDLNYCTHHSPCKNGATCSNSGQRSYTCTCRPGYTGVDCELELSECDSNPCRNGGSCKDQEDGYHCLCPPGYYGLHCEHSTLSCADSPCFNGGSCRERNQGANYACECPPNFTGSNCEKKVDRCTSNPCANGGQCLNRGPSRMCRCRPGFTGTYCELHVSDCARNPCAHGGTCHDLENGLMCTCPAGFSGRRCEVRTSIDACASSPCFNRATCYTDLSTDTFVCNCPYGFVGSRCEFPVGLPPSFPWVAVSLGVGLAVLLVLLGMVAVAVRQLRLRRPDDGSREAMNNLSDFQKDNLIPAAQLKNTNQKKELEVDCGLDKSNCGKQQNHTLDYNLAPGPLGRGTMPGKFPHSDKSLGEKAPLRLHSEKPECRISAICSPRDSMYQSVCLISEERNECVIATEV
T2 sequence (P35968 20-764): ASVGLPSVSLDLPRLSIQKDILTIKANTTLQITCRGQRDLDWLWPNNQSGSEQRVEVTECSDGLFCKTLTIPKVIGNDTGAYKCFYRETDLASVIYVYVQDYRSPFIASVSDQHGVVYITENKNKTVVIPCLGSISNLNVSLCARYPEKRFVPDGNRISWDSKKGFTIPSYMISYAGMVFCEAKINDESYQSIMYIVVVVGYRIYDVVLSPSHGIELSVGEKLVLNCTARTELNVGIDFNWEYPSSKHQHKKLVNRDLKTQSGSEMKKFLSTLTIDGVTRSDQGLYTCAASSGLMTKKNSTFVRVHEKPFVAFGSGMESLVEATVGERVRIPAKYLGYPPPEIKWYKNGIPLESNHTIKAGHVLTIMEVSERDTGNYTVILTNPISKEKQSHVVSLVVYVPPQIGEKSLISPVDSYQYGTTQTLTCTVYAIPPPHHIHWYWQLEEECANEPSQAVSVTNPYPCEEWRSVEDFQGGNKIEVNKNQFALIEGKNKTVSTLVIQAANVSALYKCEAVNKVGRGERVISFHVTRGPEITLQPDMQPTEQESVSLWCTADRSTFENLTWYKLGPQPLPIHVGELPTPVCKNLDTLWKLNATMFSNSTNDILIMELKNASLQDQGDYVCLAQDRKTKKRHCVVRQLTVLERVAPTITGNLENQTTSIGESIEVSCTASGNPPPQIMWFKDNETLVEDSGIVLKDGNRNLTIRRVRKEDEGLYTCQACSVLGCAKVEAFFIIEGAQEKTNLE
T5 sequence (P35968 20-327 limits assumed): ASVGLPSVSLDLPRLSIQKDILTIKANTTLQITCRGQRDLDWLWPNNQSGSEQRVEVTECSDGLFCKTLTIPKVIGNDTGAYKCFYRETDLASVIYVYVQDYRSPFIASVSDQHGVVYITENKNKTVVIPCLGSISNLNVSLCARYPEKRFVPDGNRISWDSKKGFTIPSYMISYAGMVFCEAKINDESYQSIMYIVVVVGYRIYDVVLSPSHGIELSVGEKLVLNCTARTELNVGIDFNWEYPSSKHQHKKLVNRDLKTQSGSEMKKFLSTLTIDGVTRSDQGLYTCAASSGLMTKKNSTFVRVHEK
T4 sequence (P35968 20-1356 limits assumed): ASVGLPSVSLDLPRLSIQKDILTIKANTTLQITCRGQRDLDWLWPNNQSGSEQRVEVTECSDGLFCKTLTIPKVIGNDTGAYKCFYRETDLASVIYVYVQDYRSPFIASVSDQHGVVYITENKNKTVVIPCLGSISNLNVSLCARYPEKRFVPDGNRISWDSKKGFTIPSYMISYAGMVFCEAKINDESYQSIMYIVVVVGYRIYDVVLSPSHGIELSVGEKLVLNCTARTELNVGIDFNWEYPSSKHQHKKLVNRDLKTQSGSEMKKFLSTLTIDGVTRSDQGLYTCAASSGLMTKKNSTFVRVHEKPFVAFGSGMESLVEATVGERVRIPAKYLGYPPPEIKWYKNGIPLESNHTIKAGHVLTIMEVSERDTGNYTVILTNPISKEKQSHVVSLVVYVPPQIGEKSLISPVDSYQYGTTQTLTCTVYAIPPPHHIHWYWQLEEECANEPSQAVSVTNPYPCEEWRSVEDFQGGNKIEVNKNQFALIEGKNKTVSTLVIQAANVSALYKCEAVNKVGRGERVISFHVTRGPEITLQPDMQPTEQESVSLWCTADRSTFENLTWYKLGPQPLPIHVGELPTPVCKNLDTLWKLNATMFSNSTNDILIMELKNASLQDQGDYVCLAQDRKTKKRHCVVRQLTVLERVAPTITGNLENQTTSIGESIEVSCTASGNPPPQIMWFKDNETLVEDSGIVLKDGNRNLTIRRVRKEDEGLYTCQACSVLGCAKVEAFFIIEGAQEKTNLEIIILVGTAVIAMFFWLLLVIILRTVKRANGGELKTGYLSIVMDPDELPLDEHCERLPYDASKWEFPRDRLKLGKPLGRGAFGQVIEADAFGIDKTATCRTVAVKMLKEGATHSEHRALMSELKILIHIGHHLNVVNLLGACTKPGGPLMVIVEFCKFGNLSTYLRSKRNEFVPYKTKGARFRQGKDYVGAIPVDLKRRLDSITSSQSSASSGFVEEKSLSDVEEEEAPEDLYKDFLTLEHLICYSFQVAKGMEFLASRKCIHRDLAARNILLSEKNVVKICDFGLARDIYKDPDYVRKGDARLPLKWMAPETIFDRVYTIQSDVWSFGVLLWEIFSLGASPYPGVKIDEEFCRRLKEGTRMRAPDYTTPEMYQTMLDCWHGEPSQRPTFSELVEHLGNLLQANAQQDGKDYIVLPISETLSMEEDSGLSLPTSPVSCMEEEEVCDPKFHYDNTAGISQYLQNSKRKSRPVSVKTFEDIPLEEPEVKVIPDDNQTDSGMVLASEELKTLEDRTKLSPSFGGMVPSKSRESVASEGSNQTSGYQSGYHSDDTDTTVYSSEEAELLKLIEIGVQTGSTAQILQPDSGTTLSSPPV
T1 sequence (Q9NR61 27-524 limits assumed): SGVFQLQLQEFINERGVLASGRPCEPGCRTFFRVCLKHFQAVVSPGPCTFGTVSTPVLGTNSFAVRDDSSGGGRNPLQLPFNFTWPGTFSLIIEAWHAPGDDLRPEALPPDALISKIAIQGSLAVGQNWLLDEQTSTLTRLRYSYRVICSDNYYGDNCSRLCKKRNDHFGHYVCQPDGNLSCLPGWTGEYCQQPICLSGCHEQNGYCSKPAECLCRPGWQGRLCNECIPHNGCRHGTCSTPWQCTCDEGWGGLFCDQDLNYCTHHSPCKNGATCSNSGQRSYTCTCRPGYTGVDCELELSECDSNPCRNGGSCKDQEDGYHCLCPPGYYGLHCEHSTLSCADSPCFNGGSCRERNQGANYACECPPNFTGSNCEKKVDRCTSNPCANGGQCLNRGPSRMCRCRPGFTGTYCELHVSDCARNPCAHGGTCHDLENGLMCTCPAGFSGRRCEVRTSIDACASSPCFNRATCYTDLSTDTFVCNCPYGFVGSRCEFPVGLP

Binder	Geometric Mean : PE-A [1]	Geometric Mean : PE-A (VEGFR2 (KDR) on HUVECs)	koff (KDR1-3 domains)	other results
6A6×DLL4 (bispecific antibody, Comparative fusion protein with a 6A6 backbone; it was captured on a Protein A chip; also called 6A6xDLL4) VH: QMQLVQSGAEVKKPGASVKLSCKASGYTFSSYWMHWVRQAPGQRLEWMGEINPGNGHTNYNEKFKSRVTITVDKSASTAYMELSSLRSEDTAVYYCAKIWGPSLTSPFDYWGQGTLVTVSS Notch1-VL: not shown	968	380		Pmax (hDLL4): 74.9; kon (hDLL4): 45800 M⁻¹ s⁻¹; Kd (hKDR-ECD): 4.46 nM; Pmax (hKDR-ECD): 502; koff (hKDR-ECD): 0.000837 s⁻¹; kon (hKDR-ECD): 188000 M⁻¹ s⁻¹
6A6 (control antibody) (antibody, V domains shown) VH: QMQLVQSGAEVKKPGASVKLSCKASGYTFSSYWMHWVRQAPGQRLEWMGEINPGNGHTNYNEKFKSRVTITVDKSASTAYMELSSLRSEDTAVYYCAKIWGPSLTSPFDYWGQGTLVTVSS VL: SNFMLTQPPSVSVSPGKTARITCRGDNLGDVNVHWYQQRPGQAPVLVMYYDADRPSGIPERFSGSNSGNTATLTISGVEAGDEADYYCQVWDRTSEYVFGTGTKVTVLG	84.6	352		
D4 (IgG1 form) (antibody, V domains shown, also called optimized antibody D4) VH: EVQLVESGGGLVQPGGSLRLSCAASGYTFSSYWMSWVRQAPGKGLEWVSEINPGNGHTNYNEKFKSRFTISRDKSKNTLYLQMNSLRAEDTAVYYCARHWGPSLTSPFDYWGQGTLVTVSS VL: DIQMTQSPSSLSASVGDRVTITCRADNLGDVNVHWYQQKPGKAPKLLIYYDADRPSGVPSRFSGSNSGNDATLTISSLQPEDFATYYCQAPTNNDPYTFGQGTKVEIKR	71.1	456		
D4 (scFv form) (scFv, V domains shown, Tested as scFv) VH: EVQLVESGGGLVQPGGSLRLSCAASGYTFSSYWMSWVRQAPGKGLEWVSEINPGNGHTNYNEKFKSRFTISRDKSKNTLYLQMNSLRAEDTAVYYCARHWGPSLTSPFDYWGQGTLVTVSS VL: DIQMTQSPSSLSASVGDRVTITCRADNLGDVNVHWYQQKPGKAPKLLIYYDADRPSGVPSRFSGSNSGNDATLTISSLQPEDFATYYCQAPTNNDPYTFGQGTKVEIKR			0.000165 s⁻¹	
LHL-G1 (scFv form) (scFv, V domains shown, Tested as scFv) VH: EVQLVESGGGLVQPGGSLRLSCAASGYTFSSYWMSWVRQAPGKGLEWVSEINPGNGHTNYNEKFKSRFTISRDKSKNTLYLQMNSLRAEDTAVYYCARSYRPSLTSPFDFWGQGTLVTVSS VL: DIQMTQSPSSLSASVGDRVTITCRADNLGDVNVHWYQQKPGKAPKLLIYYDADRPSGVPSRFSGSNSGNDATLTISSLQPEDFATYYCQAPTTNEPYTFGQGTKVEIKR			0.000239 s⁻¹	
LH-E7 (scFv form) (scFv, V domains shown, Tested as scFv) VH: EVQLVESGGGLVQPGGSLRLSCAASGYTFSSYWMSWVRQAPGKGLEWVSEINPGNGHTNYNEKFKSRFTISRDKSKNTLYLQMNSLRAEDTAVYYCARHWGPSLTSPFDYWGQGTLVTVSS VL: DIQMTQSPSSLSASVGDRVTITCRADNLGDVNVHWYQQKPGKAPKLLIYYDADRPSGVPSRFSGSNSGNDATLTISSLQPEDFATYYCQAPTRIAPYTFGQGTKVEIKR			0.000111 s⁻¹	
D3 (scFv form) (scFv, V domains shown, Tested as scFv) VH: EVQLVESGGGLVQPGGSLRLSCAASGYTFSSYWMSWVRQAPGKGLEWVSEINPGNGHTNYNEKFKSRFTISRDKSKNTLYLQMNSLRAEDTAVYYCARHWGPSLTSPFDYWGQGTLVTVSS VL: DIQMTQSPSSLSASVGDRVTITCRADNLGDVNVHWYQQKPGKAPKLLIYYDADRPSGVPSRFSGSNSGNDATLTISSLQPEDFATYYCQAPTKNVPYTFGQGTKVEIKR			0.00015 s⁻¹	
A5 (scFv form) (scFv, V domains shown, Tested as scFv) VH: EVQLVESGGGLVQPGGSLRLSCAASGYTFSSYWMSWVRQAPGKGLEWVSEINPGNGHTNYNEKFKSRFTISRDKSKNTLYLQMNSLRAEDTAVYYCARHWGPSLTSPFDYWGQGTLVTVSS VL: DIQMTQSPSSLSASVGDRVTITCRADNLGDVNVHWYQQKPGKAPKLLIYYDADRPSGVPSRFSGSNSGNDATLTISSLQPEDFATYYCQAPTTHLPYTFGQGTKVEIKR			0.000187 s⁻¹	
